Experiment: soluble on expression in E. coli; label from the status in PepcDB or PDB records

Row | Sequence | soluble on expression in E. coli
1 | LLKEYKNAWDKYDDKQLKEVFALGDRFKNFISNCKTERECVTELIKTAEKSGYRNIEDILAKGETLKEGDKVYANNRGKGLIMFLIGKEPLYTGFKILGAHIDSPRLDLKQNPLYEDTDLAMLETHYYGGIKKYQWVTLPLAIHGVIVKKDGTIVNVCVGEDDNDPVFGVSDILVHLASEQLEKKASKVIEGEDLNILIGSIPLKDGEEKQKVKHNIMKILNEKYDISEEDFVSAELEIVPAGKARDYGFDRSMVMGYGQDDRICAYTSFEAMLEMKNAKKTCITILVDKEEVGSIGATGMQSKFFENTVADIMSLCGDYDELKLRKALYNSEMLSSDVSAAFDPNYPNVMEKRNSAYLGKGIVFNKYTGSRGKSGCNDANPEYIAELRRILSKESVNWQTAELGKVDQGGGGTIAYILAEYGMQVIDCGVALLNMHAPWEISSKADIYETKNGYSAFLNN | soluble
2 | MGSDKIHHHHHHMKRKTLPKLLYADAKGNIFDHPHLCMAGMSGSEAVLPESVELIPLPEGSRLFTIPDTPPVAWDEQQRKFVTVASVREGRRPMPVQAVSAFMAPGYVRLLLPACDYSRKKVHLPLWSYTAVGWDEERDCFVVAASRVDTNQNWNPCNYDDRKLDPLVRQRLAEMPHNRLLEQLARCAVDYHCFAAKNLFFRRWEAPLPTSPACNSRCLGCISLQPSDCCPANHERIGFVPTPEEIVELALPHLLEAPEPIVSYGQGCEGDPIMQADTVAEATRRLKAATSRGTVNFNSNGSFPDRIAMLCDAGMDSMRFSMNSVREEVYDRYYRPVGYRFAEVKESVRLAGERGLFTMINYLVSPGVSDSADEVEALLRFIGETGVKMIQMRNLSIDPDFYNKRMGATGRGIGMYRMLERVKREFPHIQYGYYNRTRENFFPAGYEKGWPIR | not soluble
3 | MQVSKRKSLCKICGNPAFGNHFGVLSCRACAAFFRRTNVDGETFCPIGNCKIDKHGKFYCKKCRLRICLEAGMDANKFQHDRDLISTSTSESSDSSGSFSFSQRSKVPKSMANFLGRPAFILSCEPDKASKVKTIVDVTFLINQAFDIFGNVDRKRFSSNSNLGRMTKKFEDLQNEKSSNLSTIKVLGLKESMIFWEQDFLRTARWLSHFDEFQELPLSIRMQILKVAWILWGRLDKLVKTANERKNQQLNQNFYMIGKDVGIDIGNFEVDVSWCTNYSKEQLAYYLDCHHDEPFNIIVDAISDLKPSDMELNFMLLELCLAHAGKQHQGDVLMFTDRLLEVVSNELHDYYQSEQISNYSSRITKMMKINNLIRRNLFERLERQAVAKVFNIISVHFSHPDMFCNAGF | not soluble
4 | MSLLVQFDEFKGHSHEQFMEELDTIMLVSINKLHDNMDLRRRLLIYSVFGKVFQHRKMGILAPHGQEETF | not soluble
5 | GSLDALGSQPIHLWQFLKELLLKPHSYGRFIRWLNKEKGIFKIEDSAQVARLWGIRKNRPAMNYDKLSRSIRQYYKKGIIRKPDISQRLVYQFVHPI | soluble
6 | MGSDKIHHHHHHSEDTMDRINKDHDHTTSVASRFILADVITSTAFSNASGDINTYASSYIEYEVGVDNQLYYAEVRENEPSSSSTFNNSWNGIYSSLKNARIIIDQCGEGGRDHGNDVTRGMAEVMAAYNCALIADFFGDAPCSQAALVDEKGSPVYMTPKMDTQQEIYTQIISYLDDAIANLQKEDLADVTEQDFLYAGDADKWLKFAYGLKARYTMRLINRSSNKSADYEKVLDYVSKSFTSADDQAAFDIYDSNNINPFYGFYNSRAGFGASTSLGTKLLAYNDPRANRAFFTPIVDKKRSQVAANDPSLVPAPNGSPDQSTSKYGISAFVYAKTAPTLLMSYHELMFLKAEALCRLNRDAEDALKEAVVAGLLNAENSISIAIKELGSGLNTNSSEVITETSAGKYFDDVVKAKYAANPLQETMIQKYLAMWGASGEATETYNDFRRMKGLNENFITLTNPNNSSKFPLRYPYGNSDTAANPEVKAAYGNGDYVYSEPVWWAGGSR | not soluble
7 | MGSDKIHHHHHHMYTIAIDLGGTVVKIGLLSDGEIVDCVRLPSRLALGLALNLPKIKEAIDRLLAAWRIDVAALRCIGLAFPGLVDPIHNRVISTNEKYDDACSISLDKWAWENWEVPFCMDNDARLAVAGEWWQGAARGKNNVVMMTIGTGIGTGVVIDGRLLYGQHFQAGSLGGHFVLDYKGRRCSCGNKGCVEALSSSFFLPTIIREHALLSESFKRDADIYDFKRIFRLAQEGNTDALLIRNECMDIWASAIITYIHAYDPEVVILGGGILKSQEVIIPYISKRVDELAWCPSGKVPVVPAILGDDAALFGLEYFMVKQQQNERICI | not soluble
8 | MGSDKIHHHHHHMDIRVLRYFVVIAQEQNISRAATLLNVSQPALSRQIADLEDELGTKLFTRAHRHIQLTQEGHYLLERALQIIGLVDKTTYNLQKQDVVSGTLDIGAGESVGIMPVMEAAQQIMRQYPDVRVNLRSADAEPILADLDAGILEFGIIMGNRPLNNYNTLVLPAKNHWCAIMRADEPLAQQKEIRPIDLVGRPLITSRQAYKHGLFQKWSNTLYDQLNFVGTFNLAFNGSLLVKTGAAIALLYDQLVDVSPTSGLVARPLNPDMSEANTLIWSKNRNLPNLNRLFLDTLQKNLAQQGGSDA | not soluble
9 | MRKRARIIYNPTSGKELFKRELPDALIKLEKAGYETSAYATEKIGDATLEAERAMHENYDVLIAAGGDGTLNEVVNGIAEKPNRPKLGVIPMGTVNDFGRALHIPNDIMGALDVIIEGHSTKVDIGKMNNRYFINLAAGGQLTQVSYETPSKLKSIVGPFAYYIKGFEMLPQMKAVDLRIEYDGNVFQGEALLFFLGLTNSMAGFEKLVPDAKLDDGYFTLIIVEKSNLAELGHIMTLASRGEHTKHPKVIYEKAKAINISSFTDLQLNVDGEYGGKLPANFLNLERHIDVFAPNDIVNEELINNDHVDDNLIEEMAGDPLEHHHHHH | not soluble
10 | YRDINEIDINMNDPLFTKQWYLINTGQADGTPGLDLNVAEAWELGYTGKGVTIGIMDDGIDYLHPDLASNYNAEASYDFSSNDPYPYPRYTDDWFNSHGTRCAGEVSAAANNNICGVGVAYNSKVAGIRMLDQPFMTDIIEASSISHMPQLIDIYSASWGPTDNGKTVDGPRELTLQAMADGVNKGRGGKGSIYVWASGDGGSYDDCNCDGYASSMWTISINSAINDGRTALYDESCSSTLASTFSNGRKRNPEAGVATTDLYGNCTLRHSGTSAAAPEAAGVFALALEANLGLTWRDMQHLTVLTSKRNQLHDEVHQWRRNGVGLEFNHLFGYGVLDAGAMVKMAKDWKTVPERFHCVGGSVQDPEKIPSTGKLVLTLTTDACEGKENFVRYLEHVQAVITVNATRRGDLNINMTSPMGTKSILLSRRPRDDDSKVGFDKWPFMTTHTWGEDARGTWTLELGFVGSAPQKGVLKEWTLMLHGTQSAPYIDQVVRDYQSKLAMSKKEELEEELDEAVERSLKSILNKN | soluble
11 | MKQWIAALLLMLIPGVQAAKPQKVTLMVDDVPVAQVLQALAEQEKLNLVVSPDVSGTVSLHLTDVPWKQALQTVVKSAGLITRQEGNILSVHSIAWQNDNIARQEAEQARAQANLPLENRSITLQYADAGELAKAGEKLLSAKGSMTVDKRTNRLLLRDNKTALSALEQWVAQMDLPVGQVELSAHIVTINEKSLRELGVKWTLADAQHAGGVGQVTTLGSDLSVATATTHVGFNIGRINGRLLDLELSALEQKQQLDIIASPRLLASHLQPASIKQESEIPYQVSSGESGATSVEFKEAVLGMEVTPTVLQKGRIRLKLHISQNVPGQVLQQADGEVLAIDKQEIETQVEVKSGETLALGGIFTRKNKSGQDSVPLLGDIPWFGQLFRHDGKEDERRELVVFITPRLVSSELEHHHHHH | not soluble
12 | MVRILPIILSALSSKLVASTILHSSIHSVPSGGEIISAEDLKELEISGNSICVDNRCYPKIFEPRHDWQPILPGQELPGGLDIRINMDTGLKEAKLNDEKNVGDNGSHELIVSSEDMKASPGDYEFSSDFKEMRNIIDSNPTLSSQDIARLEDSFDRIMEFAHDYKHGYKIITHEFALLANLSLNENLPLTLRELSTRVITSCLRNNPPVVEFINESFPNFKSKIMAALSNLNDSNHRSSNILIKRYLSILNELPVTSEDLPIYSTVVLQNVYERNNKDKQLQIKVLELISKILKADMYENDDTNLILFKRNAENWSSNLQEWANEFQEMVQNKSIDELHTRTFFDTLYNLKKIFKSDITINKGFLNWLAQQCKARQSNLDNGLQERDTEQDSFDKKLIDSRHLIFGNPMAHRIKNFRDEL | soluble
13 | MAAHQLSDFQRNKILRVFNTFYDCNHDGVIEWDDFELAIKKICNLHSWPTDGKKHNEARATLKLIWDGLRKYADENEDEQVTKEEWLKMWAECVKSVEKGESLPEWLTKYMNFMFDVNDTSGDNIIDKHEYSTVYMSYGIPKSDCDAAFDTLSDGGKTMVTREIFARLWTEYFVSNDRGAKGNHLFGTLKL | soluble
14 | MRAIDLNSDLGESFGAWSMGDDAAMLDIVTSANVACGFHAGDPAGILRTLKAAAAKNVTIGAHVSYPDKVGFGRRNMDVASDELTADVIYQIGSLQGLAKAAGTSVRYVKPHGALYNTIAHDRRQAMAVIEAIRAIDPALVLVALAGSTLIELARSEGLQCIAEAFADRAYTPQGTLVSRREPGAVLHDPELVAQRMLRLVQSGSIEAIDGSLVRIEADSICVHGDSPAAVEMARELRRVLEQASTSLQPFAGKRSLEHHHHHH | not soluble
15 | MSLQRVQIMGAGALGSLVGALIQLAGYDVIFVARGKQLEALKKGLRVSGLKNAELKVYCTSQPEDADITFVTVKAYDTETVAKKLAEVDAGVVCSLQNGVGNEEILAKYCRKVLGGVTTYGANLKDYGHVVYAGEGYTYVGEMDGRVSGEAEMVAEVLRDAGMRAEAVNDIEFRIWAKAVVNAAINPITAICRVKNGEVVRNPHLWEVARAVADEGRQVMARMGYEFDAASEVRKVAEMTAENRSSMLQDLERGKRTEVEFINGAIVKKGEEFGIDCAVNRTLLNLVRGVESGEGHHHHHH | soluble
16 | GAGTSTPTTGNQNMSGNSGSIVQNFYMQQYQNSIDADLGDNVISPEGQGSNTSSSTSSSQSSGLGGWFSSLLNLGTKLLADKKTEETTNIEDRIETTVVGVTIINSQGSVGTTYCYSKPDGRPPSTVSDPVTRLGPTLSRHYTFKVGEWPHSQSHGHAWICPLPGDKLKKMGSFHEVVKAHHLVKNGWDVVVQVNASFAHSGALCVAAVPEYEHTHEKALKWSELEEPAYTYQQLSVFPHQLLNLRTNSSVHLVMPYIGPGPTTNSALHNPWTIVVLILSELTGPGQTVPVTMSVAPIDAMVNGPLPNPEAPIRVVSVPESDSFMSSVPDNSTPLYPKVVVPPRQVPGRFTNFIDVAKQTYSFCSISGKPYFEVTNTSGDEPLFQMDVSLSAAELHGTYVASLSSFFAQYRGSLNFNFIFTGAAATKAKFLVAFVPPHSAAPKTRDEAMACIHAVWDVGLNSAFSFNVPYSSPADFMAVYSAEATVVNVSGWLQVYALTALTSTDIAVNSKGRVLVAVSAGPDFSLRHPVDLPDKQVTNVGEDGEPGETEPRYALSPVDMHVHTDVSFLLDRFFDVETLELSNLTGSPNTHVLNPFGSTAQLAWARLLNTCTYFFSDLELSIQFKFTTTPSSVGEGFVWVKWFPVGAPTKTTDAWQLEGGGNSVRIQQLAVAGMSPTVVFKIAGSRSQACGFSVPYTSMWRVVPVFYNGWGAPTKEKATYNWLPGAHFGSILLTSDAHDKGGCYLRYRFPRASMYCPRPIAPAFTRPADKTRHKFPTNINKQCTNYSLLKLAGDVESNPG | soluble
17 | DPATVFRLVAAEALTLTGADGTLVAVPADPDASAAEELVIVEVAGAVPAEVEASAIPVQDNAIGQAFRDRAPRRLDVLDGPGLGGPALVLPLRATDTVAGVLVAVQGSGARPFTAEQLEMMTGFADQAAVAWQLASSQRRMSELDILAD | soluble
18 | MDAIFLKLDNIKGESQVEGFEDQIEIMSYSHNVAMQVNNDVSLTERTSGRAHVGEMSLTKFVDLATPVLNEYCCSGRLIRTAVLTLCRNDDGKMRSLIVYTLTNVLISQLSVSGGAGGKPVETMSLNFTKIEWQITAEKSDGAQQESRTSVWDLAMNQIGK | not soluble
